Measurements published in the Immune Epitope Database (IEDB).

Legend:
Experiment in all cases: IEDB peptide-MHC binding, purified MHC/competitive/radioactivity; filed as Kd, often an IC50 or EC50 that approximates it; ≥ and ≤ were set here for values at or beyond the usual limits of such assays
HLA-A*02:03 = biological target: HLA-A*02:03
HLA-A*02:06 = biological target: HLA-A*02:06
HLA-A*02:02 = biological target: HLA-A*02:02
HLA-A*31:01 = biological target: HLA-A*31:01
HLA-A*33:01 = biological target: HLA-A*33:01
HLA-A*68:01 = biological target: HLA-A*68:01
HLA-A*11:01 = biological target: HLA-A*11:01
HLA-A*03:01 = biological target: HLA-A*03:01
[1] = source organism: Vaccinia virus WR
[2] = source organism: SARS coronavirus Tor2
[3] = source organism: Mammarenavirus whitewaterense
[4] = source organism: Mammarenavirus guanaritoense
[5] = source organism: Mammarenavirus juninense
[6] = source organism: Dengue virus 3 Martinique/1243/1999
[7] = source organism: Mammarenavirus brazilense
[8] = source organism: Vaccinia virus
[9] = source organism: Mammarenavirus lassaense

Sequence	Kd (HLA-A*02:03; [1])	Kd (HLA-A*02:06; [1])	Kd (HLA-A*02:02; [1])	other results
DVNSVQFSIL	1660 nM	3400 nM	2270 nM	–
KVVGLYGNGV	–	–	–	Kd (HLA-A*02:06; source organism: Dengue virus 2 Jamaica/1409/1983): 11.8 nM
KAMHDKKIDI	≥ 46200 nM	≥ 26400 nM	≥ 70000 nM	–
DITNILGGV	1640 nM	7430 nM	9880 nM	–
NTIDKSSPL	27.1 nM	18.6 nM	82.3 nM	–
MVEYLENQL	6460 nM	3960 nM	343 nM	–
LINLVQYRIL	2250 nM	15900 nM	2120 nM	–
KQNKFGDSPL	216 nM	5080 nM	89.6 nM	–
HLENDKIEDL	414 nM	10600 nM	526 nM	–
IINSVSIILA	890 nM	957 nM	719 nM	–
AIYVFCISL	–	–	–	Kd (HLA-A*02:03; [2]): 201 nM; Kd (HLA-A*02:06; [2]): 47.7 nM; Kd (HLA-A*02:02; [2]): 143 nM
FLAFLLFLVL	–	–	–	Kd (HLA-A*02:03; [2]): 245 nM; Kd (HLA-A*02:06; [2]): 2000 nM; Kd (HLA-A*02:02; [2]): 13.2 nM
YLSKEDRIIT	5570 nM	≥ 49000 nM	1300 nM	–
KTVAGSFAS	–	–	–	Kd (HLA-A*02:03; [3]): 3810 nM; Kd (HLA-A*02:06; [3]): 9130 nM; Kd (HLA-A*02:02; [3]): 1590 nM
FMECNLNEL	–	–	–	Kd (HLA-A*02:03; source organism: Homo sapiens): 1.1 nM
GLKSKTHAVL	–	–	–	Kd (HLA-A*02:03; source organism: Homo sapiens): 1.05 nM; Kd (HLA-A*02:06; source organism: Homo sapiens): ≥ 69800 nM
IASGQRCHFI	8320 nM	256 nM	526 nM	–
ALVSDCAST	31.1 nM	311 nM	701 nM	–
DLNIFMTLV	556 nM	2190 nM	1910 nM	–
FMNDLQVSR	–	–	–	Kd (HLA-A*02:03; [4]): 914 nM; Kd (HLA-A*02:06; [4]): ≥ 33600 nM; Kd (HLA-A*02:02; [4]): 249 nM
KILSDENYL	1170 nM	27.6 nM	196 nM	–
TSLGLLYTV	–	–	–	Kd (HLA-A*02:03; [5]): 405 nM; Kd (HLA-A*02:06; [5]): 4.17 nM; Kd (HLA-A*02:02; [5]): 933 nM
FSAVISGSV	–	–	–	Kd (HLA-A*02:03; [3]): 14100 nM; Kd (HLA-A*02:06; [3]): 161 nM; Kd (HLA-A*02:02; [3]): 48.2 nM
TLFGRGVIDT	95.6 nM	3310 nM	199 nM	–
NIKISLNEIL	1390 nM	557 nM	705 nM	–

Sequence	Kd (HLA-A*02:03; [1])	Kd (HLA-A*02:06; [1])	Kd (HLA-A*02:02; [1])	other results
IIGHIGHHYI	186 nM	1350 nM	400 nM	–
YVHSLLYSSM	6710 nM	2250 nM	2200 nM	–
LLNMRDLIV	1.23 nM	225 nM	665 nM	–
FIASAPQQL	4.39 nM	89.4 nM	1.97 nM	–
HQRRLVKLL	1680 nM	≥ 21300 nM	15900 nM	–
EVLMSPCRM	651 nM	11800 nM	6830 nM	–
TIDAINKCV	634 nM	406 nM	90.1 nM	–
MLKLFTHDIM	93.1 nM	≥ 20300 nM	84.6 nM	–
LTKDRKMLEL	133 nM	≥ 20800 nM	7700 nM	–
IVLEFFMMVL	–	–	–	Kd (HLA-A*02:06; [6]): 107 nM
PLKDVERLQM	≥ 44000 nM	≥ 37300 nM	6160 nM	–
VMFNGVTFST	–	–	–	Kd (HLA-A*02:03; [2]): 75.2 nM; Kd (HLA-A*02:06; [2]): 131 nM; Kd (HLA-A*02:02; [2]): 0.69 nM
FVNFVKDMI	124 nM	229 nM	55.2 nM	–
LNIALVAVSL	–	–	–	Kd (HLA-A*02:03; [5]): 12400 nM; Kd (HLA-A*02:06; [5]): 13100 nM; Kd (HLA-A*02:02; [5]): 179 nM
YIKDLKHAT	≥ 78100 nM	≥ 39400 nM	18500 nM	–
VQLPKRGVRV	2210 nM	41.3 nM	≥ 33700 nM	–
SALMTLDDL	707 nM	99.9 nM	411 nM	–
NLKYTVIITV	–	–	–	Kd (HLA-A*02:03; [6]): 9.29 nM
DMICCDSRIV	6080 nM	18900 nM	11300 nM	–
VTTKDYFSFK	–	–	–	Kd (HLA-A*31:01; [1]): 561 nM; Kd (HLA-A*33:01; [1]): 7280 nM; Kd (HLA-A*68:01; [1]): 155 nM; Kd (HLA-A*11:01; [1]): 11 nM; Kd (HLA-A*03:01; [1]): 26.1 nM
KMLTFDVFR	–	–	–	Kd (HLA-A*31:01; [1]): 3.97 nM; Kd (HLA-A*33:01; [1]): 365 nM; Kd (HLA-A*68:01; [1]): 77.2 nM; Kd (HLA-A*11:01; [1]): 2.96 nM; Kd (HLA-A*03:01; [1]): 82.9 nM
GSFQEFRSNH	–	–	–	Kd (HLA-A*31:01; [7]): 1520 nM; Kd (HLA-A*33:01; [7]): ≥ 45200 nM; Kd (HLA-A*68:01; [7]): ≥ 70100 nM; Kd (HLA-A*11:01; [7]): 7130 nM; Kd (HLA-A*03:01; [7]): ≥ 28700 nM
VTSSGTIYK	–	–	–	Kd (HLA-A*31:01; [8]): 0.577 nM; Kd (HLA-A*33:01; [8]): 10.2 nM; Kd (HLA-A*68:01; [8]): 16.8 nM; Kd (HLA-A*11:01; [8]): 0.595 nM; Kd (HLA-A*03:01; [8]): 8.08 nM
NSTCYVFGLY	–	–	–	Kd (HLA-A*31:01; [1]): 3240 nM; Kd (HLA-A*33:01; [1]): 9000 nM; Kd (HLA-A*68:01; [1]): 8.95 nM; Kd (HLA-A*11:01; [1]): 19.5 nM; Kd (HLA-A*03:01; [1]): 161 nM
QCKDLCHMH	–	–	–	Kd (HLA-A*31:01; [9]): 526 nM; Kd (HLA-A*33:01; [9]): 12300 nM; Kd (HLA-A*68:01; [9]): 1520 nM; Kd (HLA-A*11:01; [9]): ≥ 77900 nM; Kd (HLA-A*03:01; [9]): ≥ 71900 nM
